Experimental data as given in paper doi:10.1101/2025.08.05.25330579.

Key:
RBM10 RRM2 WT = target: T1, RBM10 RRM2 WT (UniProt P98175 300-384); test: ITC
T1 sequence: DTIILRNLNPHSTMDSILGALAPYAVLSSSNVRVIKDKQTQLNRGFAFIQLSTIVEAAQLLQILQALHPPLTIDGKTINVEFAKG

RBM10 RRM2 R332C = target: T2, RBM10 RRM2 R332C (UniProt P98175 300-384, R332C); test: ITC and NMR
T2 sequence: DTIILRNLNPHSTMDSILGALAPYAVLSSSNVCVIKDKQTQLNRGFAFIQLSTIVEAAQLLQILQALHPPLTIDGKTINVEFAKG

B1: NUMB exon 12-derived 12mer RNA (ssRNA)
RNA: UUGUCUGCUCCC
- binding result (RBM10 RRM2 WT): binds
- binding signal (RBM10 RRM2 R332C): > 20 fold reduced affinity vs WT
